The target of assay [1] is T1, GST fusion of mouse c-Abl containing only the SH2 and kinase domains (Mus musculus, UniProt P00520).
T1 construct: a GST fusion of mouse c-Abl containing only the SH2 and kinase domains; made in house; host or cells: E. coli BL21
T1 sequence (P00520 127-493): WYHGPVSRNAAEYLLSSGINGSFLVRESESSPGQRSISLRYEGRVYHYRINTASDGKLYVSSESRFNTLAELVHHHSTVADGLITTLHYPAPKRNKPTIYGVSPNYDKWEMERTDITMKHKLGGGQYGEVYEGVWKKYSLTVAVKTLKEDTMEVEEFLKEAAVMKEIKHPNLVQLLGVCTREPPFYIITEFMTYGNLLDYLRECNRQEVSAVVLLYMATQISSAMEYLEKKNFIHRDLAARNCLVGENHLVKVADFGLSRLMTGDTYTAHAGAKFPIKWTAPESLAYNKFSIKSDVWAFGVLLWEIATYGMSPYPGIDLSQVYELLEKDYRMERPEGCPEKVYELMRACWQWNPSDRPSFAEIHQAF
The experiment in a line: Kinase assay with truncated c-Abl containing only the SH2 and kinase domains. It counts as biochemical. The following applies: truncated c-Abl, after 60 min. The protocol:
(§1) Purified Rh-(Crk-II)-Fl prepared as described in Example I was treated with either full length recombinant (Baculovirus/SF9) mouse c-Abl or a GST fusion of mouse c-Abl containing only the SH2 and kinase domains (expressed in E. coli BL21 essentially as described (19)). In a typical experiment, the appropriate c-Abl construct was incubated in reaction buffer (2 mM DTT, 0.2 mg/ml BSA, 10 mM Mg^2+, 50 mM Tris, pH 7.4, either with or without ATP (500 μM)) for 5 min at 30° C. before addition of Rh-(Crk-II)-Fl (final concentration=0.25 μM). In order to ensure that equal amounts of active c-Abl enzyme were added to each reaction, preliminary titration experiments were carried out using an optimized peptide substrate for c-Abl (EAIYAAPFAKKK (SEQ ID No:2) (20)). […] In all cases, aliquots of the reaction mixtures were removed at ˜1 min and 60 min, quenched with EDTA (final conc.=40 mM), and then analyzed by native-PAGE and/or Western blotting and fluorescence spectroscopy. […]
(§2) Fluorescence Spectroscopy. […] Excitation was at 490 nm with a 2.5 nm slit and the fluorescence emission was monitored at 520 nm and 580 nm through a 4 nm slit. […] Rh-(Crk-II)-Fl was treated with full length recombinant c-Abl and aliquots of the reaction mixture were analyzed by fluorescence spectroscopy and western blotting at ˜1 min and 60 min time-points. […]

The target in assay [2] is T2, N-SH3 domain of Crk-II (binding to c-Abl) (Mus musculus, UniProt Q64010).
T2 construct: extra Gly plus fluorescein peptide (Cys-Fl-PS, remainder after PreScission site) (C); made in house; host or cells: E. coli BL21 (Crk-II-intein fusion), then ligation of synthetic peptides
Nature of the assay: Peptide inhibition study: Crk-II phosphorylation by full length c-Abl in presence of N-SH3 ligand (Rh-(Crk-II)-Fl biosensor). The class given is biochemical. The following applies: fluorescence-based assay. The method, then: as §1, §2

Where no end group is shown, it is not given here.

T2 sequence (Q64010 with tags, fused parts or gaps): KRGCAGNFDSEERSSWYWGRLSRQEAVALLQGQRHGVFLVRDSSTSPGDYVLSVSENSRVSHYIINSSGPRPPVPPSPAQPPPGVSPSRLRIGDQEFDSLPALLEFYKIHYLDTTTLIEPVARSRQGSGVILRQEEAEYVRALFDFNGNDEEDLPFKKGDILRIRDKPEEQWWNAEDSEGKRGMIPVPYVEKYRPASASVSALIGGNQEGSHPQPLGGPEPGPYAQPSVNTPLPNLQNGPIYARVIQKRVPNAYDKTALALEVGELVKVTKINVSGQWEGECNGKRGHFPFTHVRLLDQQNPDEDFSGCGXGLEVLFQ

“EAIYAAPFAKKK (Peptide Substrate) [optimized peptide substrate for c-Abl, reference compound]”: the “phosphorylation of optimized peptide substrate” value in assay [1] is on record as “completely phosphorylated”. As to “PPPALPPKRRR-NH2 [high affinity N-SH3 ligand]”, the “effect on Crk-II phosphorylation by c-Abl” value in assay [2] is listed as “partially inhibit Crk-II phosphorylation”.

Source of the values: patent publication US20060040319A1, “Multiple sensor-containing active modified polypeptides, preparation and uses thereof” (priority 2000, published 2006).
